Results as given in publication PMC3428313.

How the values were obtained:
[1] = tested on: C/EBPbeta isoform LAP, P17676-2; experiment: competition EMSA; conditions: 20 mM HEPES pH 8.0, 1 mM MgCl2, 60 mM KCl, 0.1 mM EDTA, 15% glycerol, 1 ug poly dI-dC, 8 ug nuclear extract; 30 min room temperature then 15 min 4 C; gel at …
[2] = tested on: C/EBPbeta isoform LIP (Flag-LIP), P17676-3; experiment: competition EMSA; conditions: 20 mM HEPES pH 8.0, 1 mM MgCl2, 60 mM KCl, 0.1 mM EDTA, 15% glycerol, 1 ug poly dI-dC, 8 ug nuclear extract; 30 min room temperature then 15 min 4 C; gel at …
Sequence of C/EBPbeta isoform LIP (Flag-LIP), P17676-3 (P17676 199-345): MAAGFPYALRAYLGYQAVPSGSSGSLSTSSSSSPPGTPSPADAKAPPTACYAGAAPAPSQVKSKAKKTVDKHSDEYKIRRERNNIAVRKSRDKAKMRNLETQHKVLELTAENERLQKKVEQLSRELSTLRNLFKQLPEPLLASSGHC

Sequence of C/EBPbeta isoform LAP, P17676-2 (P17676 24-345): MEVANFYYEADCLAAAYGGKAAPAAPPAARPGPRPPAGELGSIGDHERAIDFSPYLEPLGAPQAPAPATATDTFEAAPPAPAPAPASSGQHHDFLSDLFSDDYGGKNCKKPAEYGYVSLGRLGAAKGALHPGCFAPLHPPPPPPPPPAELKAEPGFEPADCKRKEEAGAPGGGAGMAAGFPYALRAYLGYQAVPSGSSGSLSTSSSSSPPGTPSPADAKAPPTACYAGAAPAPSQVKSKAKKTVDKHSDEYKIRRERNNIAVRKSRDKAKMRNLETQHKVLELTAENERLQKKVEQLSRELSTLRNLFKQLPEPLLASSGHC

Sequence	Kd [1]	Kd [2]
GCTTGCTTGCTTAAAGACCT (double strand) [DS1C/A C/EBP site]	24.8 10^-7 M	5.1 10^-7 M
GCTTGCTTGCTTAAAGCCCT (double strand) [DS1 wild-type C/EBP site]	50 10^-7 M	17.5 10^-7 M
